Source: publication PMC3870051 (Heart rhythm : the official journal of the Heart Rhythm …, 2013)

Target: NaV1.5 C-terminal domain (CTD), purified recombinant (UniProt Q14524 1773-1940)
Assay: ITC

Chain of NaV1.5 C-terminal domain (CTD), purified recombinant (Q14524 1773-1940): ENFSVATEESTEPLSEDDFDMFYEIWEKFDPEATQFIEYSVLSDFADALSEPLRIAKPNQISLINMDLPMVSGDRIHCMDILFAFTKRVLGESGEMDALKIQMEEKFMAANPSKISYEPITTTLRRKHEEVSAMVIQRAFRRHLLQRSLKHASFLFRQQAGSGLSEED

B1: Q7R-FGF12 (human FGF12-B with Q7R), purified recombinant (natural protein, UniProt P61328-2 1-181, looked up)
chain: MESKEPRLKGIVTRLFSQQGYFLQMHPDGTIDGTKDENSDYTLFNLIPVGLRVVAIQGVKASLYVAMNGEGYLYSSDVFTPECKFKESVFENYYVIYSSTLYRQQESGRAWFLGLNKEGQIMKGNRVKKTKPSSHFVPKPIEVCMYREPSLHEIGEKQGRSRKSSGTPTMNGGKVVNQDST
How did the “fold reduction in binding affinity against WT-FGF12” value turn out when B1 was run?
Its value is 2 fold.
